Assay results from patent publication US12138415B2, “Increased bioavailability of transdermally delivered agents” (priority 2011, dated 2024).

Legend:
Dynamin = conditions: cited from earlier work
[1] = test system: monolayer of Caco-2 cells; experiment: Caco-2 monolayer permeability (TEER) transport study of FITC-etanercept with Dynasore blocking Dynamin; assay type: in vitro ADME, human; conditions: DN2 polypropylene film, 0.1 mg/mL Dynasore and FITC-conjugated etanercept, FIG. 25
Protocol: The permeability effects of films patterned as described above were determined on a monolayer of Caco-2 cells (human epithelial colorectal adenocarcinoma cells). The effects of the nanostructured surfaces on transcellular transport mechanisms were investigated by blocking Dynamin, a critical protein in endocytosis, with Dynasore. Dynamin is a large GTPase protein that self-assembles into a spiral shape, constricting around budding vesicles to free them from the plasma membrane and into the cytosol for transcellular transport. The small molecule, Dynasore, is able to rapidly block the activity of Dynamin by quickly inhibiting the GTPase module of Dynamin within about 2 minutes and has been used in numerous studies for probing the mechanisms of cellular internalization and endocytosis for transcellular transport. The transport study was a transepithelial electrical resistance (TEER) study that was carried out in the presence of Dynasore to biochemically block the activity of Dynamin and preclude both clathrin and caveolin mediated endocytosis.
Films formed as described in Example 1 and Example 2 were utilized including a polypropylene (PP) film formed with a pattern designated as DN2, and a flat, nonpatterned polypropylene film. As control, a monolayer of cells with no associated film was utilized.
• 1. […] Measure fluorescence signal using a spectrofluorometer plate reader. […]

EpiDerm™ tissue = experiment: Etanercept delivery across EpiDerm tissue on nanopatterned film (donor/receptor chamber); assay type: in vitro ADME; conditions: 1 mg/mL, 37° C.; for increase in the amount of etanercept in the receiver chamber: EpiDerm tissue on DN2 patterned film
Text: A device as illustrated in FIG. 28 was assembled including a film (i.e., a membrane) defining a pattern of nanostructures on a surface thereof. The film was formed as described above in Example 1 and was a polypropylene film including a DN2 pattern on the surface thereof. An EpiDerm™ tissue, a three dimensional construct organized into basal, spinous, and granular layers along a multi-layered stratum corneum available from MatTek Corporation, was located on the surface of the film as described above with regard to the monocellular layer.
A 1 mg/mL composition including the high molecular weight drug etanercept (Enbrel®) was prepared. Etanercept is a fusion protein having a molecular weight of 150 kDa. Phosphate buffered saline was located in the receptor chamber. The system was incubated at 37° C. and samples were withdrawn every five hours.
The composition was loaded in to the donor chamber on one side of an EpiDerm™ tissue either on the DN2 nanostructure film or on a polypropylene film with no nanopattern formed thereon (PPUI), and samples were withdrawn from the receptor chamber on the other side of the cell layer, as illustrated in FIG. 28. As can be see with reference to FIG. 29, following one hour, very little etanercept had passed into the receptor chamber for the control, while there was approximately a 1.7 fold increase in the amount of etanercept in the receiver chamber for the sample on the DN2 patterned film. After two hours, there was an approximately 2-fold increase for the system including the DN2 patterned film.

[2] = rabbit, in vivo
Text: An array of microneedles including a nanopatterned surface was formed. Initially, an array of microneedles as illustrated in FIG. 2 was formed on a silicon wafer via a photolithography process. Each needle included two oppositely placed side channels, aligned with one through-die hole in the base of the needle (not visible on FIG. 2).
Microneedles were formed according to a typical micromachining process on a silicon based wafer. The wafers were layered with resist and/or oxide layers followed by selective etching (oxide etching, DRIE etching, iso etching), resist stripping, oxide stripping, and lithography techniques (e.g., iso lithography, hole lithography, slit lithography) according to standard methods to form the array of microneedles. The microneedles were 300 microns tall and 100 microns in diameter.
Following formation of the microneedle array, a 5 μm polypropylene film including a DN2 or a polypropylene film including a DN3 pattern formed thereon as described above in Example 1 was laid over the microneedle array. The wafer/film structure was held on a heated vacuum box (3″ H2O vacuum) at elevated temperature (130° C.) for a period of one hour to gently pull the film over the surface of the microneedles while maintaining the nanopatterned surface of the film.
The transdermal patches measured 25 mm by 25 mm with a density of 784 microneedles/cm^2. Control patches were also formed that had no pattern formed on the film subsequently applied to the array of microneedles.
Two subjects were utilized for each device type.
Approximately 100 to 200 μl blood was taken via—mandibular bleeding and then centrifuged at approximately 1300 rpm for 10 minutes in a refrigerated centrifuge (set at 4° C.). The resulting serum was aspirated and transferred within 30 minutes of blood collection/centrifugation to appropriately labeled tubes. The tubes were frozen and stored in the dark at ≤−70° C. until they were analyzed for levels of Enbrel® using Human sTNF-receptor ELISA kit (R&D Systems cat #DRT200). The space time between two blood samplings on the same subject was 24 hours, to prevent unnecessary stress placed on the subject.
Following, the blood serum level gradually declined within 56 hours of attachment and then leveled off.

[3] = Organ and tissue etanercept concentration after 72 hours (sTNF RII ELISA); conditions: rabbit
Protocol: Test subjects (rabbits) were transdermally dosed with Enbrel® or were subcutaneously (SubQ) dosed with Enbrel®. […] The subcutaneous dose formulation (for the positive control) was prepared to facilitate a 2.5 mg/animal and the transdermal dose formulation was 1.875 mg/animal. Two subjects were utilized for each device type.
After 72 hours, several different organs and tissue types in each subject were examined for etanercept concentration. Specifically, organ representative samples of approximately 100 mg each were placed in labeled 50 mL conical storage tubes and stored in the dark at approximately −70° C. for preservation testing.
For analysis of Enbrel levels in tissues at the analytical laboratory, tissues were tested by use of a Quantikine® Human sTNF RII/TNFRSF1B Immunoassay (catalog no. DRT200, SRT200, PDRT200) available from R&D Systems, Inc. of Minneapolis, MN, USA. The immunoassay is a solid phase ELISA assay for determination of sTNF RII. The protein was measured against the standard provided with the kit, and etanercept was measured against a standard curve, with concentrations based on the dosage details.
All concentrations are provided as ng/g tissue. The ELISA detection mechanism could be utilized for concentrations down to about 0.6 pg/mL. Results of <MIN signify a concentration too low to be determined by the ELISA assay. Results of N/A indicate an error in the ELISA assay, with no reportable results obtained.

Question: With O=C(N/N=C/c1ccc(O)c(O)c1)c1cc2ccccc2cc1O [Dynasore] as the compound, how does the “time to inhibit the GTPase module of Dynamin” value (Dynamin) read?
Answer: ≤ 2 min

Question: Which “effect of blocking the transcellular delivery route on etanercept transport across the layer” value [1] does the source give for etanercept here?
Answer: did not significantly decrease

Question: And the “increase in the amount of etanercept in the receiver chamber” value (EpiDerm™ tissue; after two hours)?
Answer: approximately 2 fold

Question: What about the “increase in the amount of etanercept in the receiver chamber” value (EpiDerm™ tissue; following one hour) of the same compound?
Answer: ~1.7 fold

Question: And the “amount of etanercept passed into the receptor chamber” value (EpiDerm™ tissue; EpiDerm tissue on polypropylene film with no nanopattern (PPUI, control), following one hour)?
Answer: very little

Question: And the “absorption of etanercept compared to the flat, unstructured device” value [2]?
Answer: significantly increased

Question: What about the “bioavailability relative to the control patch” value [2] of the same compound?
Answer: about 35 times

Question: What about the “blood serum level of etanercept (course)” value [2] of the same compound?
Answer: very low levels

Question: What about the “decrease of time to reach the maximum concentration” value [2] of the same compound?
Answer: ~24 h

Question: What about the “increase in the maximum concentration” value [2] of the same compound?
Answer: 95%

Question: What about the “time of peak blood serum level” value [2] of the same compound?
Answer: approximately 48 hours

Question: And the “time within which blood serum level gradually declined, then leveled off” value [2]?
Answer: ≤ 56 h

Question: And the “etanercept concentration in kidney” value ([3]; Subcutaneous dose 2.5 mg/animal)?
Answer: 10.14 ng/g tissue

Question: What about the “etanercept concentration in kidney” value ([3]; microneedle patch with Control Film (no pattern), 1.875 mg/animal) of the same compound?
Answer: 10.66 ng/g tissue

Question: What about the “etanercept concentration in kidney” value ([3]; microneedle patch with DN3 pattern, 1.875 mg/animal) of the same compound?
Answer: 11.3 ng/g tissue
